The record followed here is US20070254831A1 (published 2007).

By Kd is commonly meant the free concentration of one partner at which half of the binding sites on the other are occupied at equilibrium, for simple one-to-one binding. High values mean weaker binding, low ones tighter binding. A word on the IC50: it is the midpoint of a concentration-inhibition curve. A higher IC50 goes with a need for much substance.

The target in experiment [1] is T1, soluble human FcRn (human, UniProt P55899 24-297; P61769 21-119, biotinylated (Sulfo-NHS-LC-Biotin) in the ELISA; amine-coupled to CM5 chip in SPR).
T1 construct: also called shFcRn; biotinylated shFcRn
The experiment is described as follows: SPR, pH 6.
Description: (§1) The following steps were performed to cross-link soluble human or cynomolgus FcRn to the dextran surface of a CM5 sensor chip (Biacore AB, Uppsala, Sweden) by an amine coupling reaction involving 1-ethyl-(3-dimethylaminopropyl)-carbodiimide hydrochloride (EDC) (Biacore AB, Uppsala, Sweden) and N-hydroxysuccinimide (NHS) (Biacore AB, Uppsala, Sweden) as recommended by Biacore (BIAapplications Handbook, version AB, section 4.2, Biacore AB, Uppsala, Sweden). […] Residual sites on the FcRn flow cell were blocked with 1 M ethanolamine hydrochloride pH 8.5 (Biacore AB, Uppsala, Sweden). A control flow cell was blocked with ethanolamine for reference subtraction. For analysis of the monomeric peptides, FcRn was coated to a final density of 4000-5000 response units (RU). For analysis of the peptide dimers, FcRn was coated to a density of 2000-2500 RU. All SPR measurements were performed using a BIACORE 3000 Instrument (Biacore AB Uppsala, Sweden). For measurements done at either pH 6 or pH 7.4, experiments were performed in 50 mM phosphate, 100 mM sodium chloride, 0.01% surfactant P20 (Biacore AB, Uppsala, Sweden).
(§2) Ten, 2-fold dilutions of the peptide were injected over the FcRn-CM5 chip at a rate of 20 μl/min for 2 min. The peptide was dissociated from the chip for 2.5 minutes with buffer. Any remaining peptide was removed from the chip with a 30 second injection of HBS-P buffer (Biacore AB, Uppsala, Sweden) at a rate of 30 μl/min. Sensorgrams were generated and analyzed using BiaEval software version 3.1 (Biacore AB, Uppsala, Sweden). The equilibrium RU observed for each injection was plotted against concentration. The equilibrium KD values were derived by analysis of the plots using the steady state affinity model included in the BiaEval software.

Experiment [2] has as its target T1, soluble human FcRn. As to the kind of experiment: SPR, pH 7.4. (In general: Surface plasmon resonance follows binding to a sensor surface in real time, without labels.)
Description: as §1, §2
Experiment [3] deals with T1, soluble human FcRn. The experiment is described as follows: ELISA, competitor human IgG.
Experiment [4] addresses T1, soluble human FcRn. The experiment is described as follows: SPR, pH 6. The source holds these as a separate data set.
Description: as §1, §2
Experiment [5] has as its target T1, soluble human FcRn. As to the kind of experiment: ELISA, competitor human IgG. The source holds these as a separate data set. For orientation: ELISA stands for enzyme-linked immunosorbent assay.
Description: (§3) The wells were coated with 100 μl/well of 1 μg/ml biotinylated-shFcRn in Buffer A. The plate was sealed and incubated at 37° C. for 2 hours. Afterwards, the plate washed with 200 μl/well of Buffer B (Buffer B: 100 mM MES pH 6, 150 mM NaCl, 0.5% BSA IgG-free (Jackson ImmunoResearch, West Grove, Pa.), 0.05% Tween-20). […] To allow for mixing, the plate was rocked for 2 minutes, sealed and incubated at 37° C. for 2 hours. […] The plate was covered, incubated for 30 minutes at room temperature and washed 4 times with 200 μl/well of ice-cold buffer B. SureBlue TMB substrate solution (100 μl/well, KPL, Gaithersburg, Md.) was added and the plate was allowed to incubate at room temperature until color developed, which took 5 to 10 minutes. Once color developed, 100 μl/well of TMB stop solution (KPL, Gaithersburg, Md.) was added and the absorbance was measured at 450 nm. The data was plotted as absorbance vs. peptide concentration to derive the inhibitory concentration 50% (IC₅₀) values.
Experiment [6] addresses T1, soluble human FcRn. The experiment is described as follows: SPR, pH 6. This is another data set of the same source.
The target of experiment [7] is T1, soluble human FcRn. As to the kind of experiment: SPR, pH 6. This is another data set of the same source.
Description: as §1, §2
Experiment [8] has as its target T1, soluble human FcRn. As to the kind of experiment: ELISA, competitor human IgG. This is another data set of the same source.
Description: as §3

Where two headings read alike, the source gives them in different places. Bridge positions count the residues as written; N and C are the ends. Square brackets hold non-standard residues; d marks the D form. Ends that are not written are not given here. NMeA = CN[C@@H](C)C(=O)O

T1 sequence (P55899 24-297 limits assumed, chain 1 of 2): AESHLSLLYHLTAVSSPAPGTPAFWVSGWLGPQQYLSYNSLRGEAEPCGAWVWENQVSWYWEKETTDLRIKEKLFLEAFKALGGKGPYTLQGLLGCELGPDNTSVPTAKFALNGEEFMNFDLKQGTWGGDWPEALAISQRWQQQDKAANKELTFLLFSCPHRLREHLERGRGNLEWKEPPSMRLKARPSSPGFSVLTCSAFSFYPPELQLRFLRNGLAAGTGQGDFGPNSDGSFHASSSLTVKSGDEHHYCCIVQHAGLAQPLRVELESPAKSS
T1 sequence (P61769 21-119 limits assumed, chain 2 of 2): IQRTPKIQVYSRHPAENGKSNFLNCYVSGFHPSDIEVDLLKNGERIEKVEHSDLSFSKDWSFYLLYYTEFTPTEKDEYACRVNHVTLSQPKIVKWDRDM

B1: Peptide No. 264 (peptide)
peptide: RFXTGXFGGLYPC
modifications: Pen at 3; 4-PiperidylAla at 6; Sar at 9; NMeLeu at 10; disulfide; C-terminal amide
For the molecule B1, the results for the equilibrium dissociation constant (Kd) in the experiment with soluble human FcRn [1] and with soluble human FcRn [2] were 5200 nM and 6400 nM, respectively. The IC50 in the experiment with soluble human FcRn [3] is 85000 nM.

B2: Peptide No. 260 (peptide)
peptide: RFXTGXFGGLYPC
modifications: Pen at 3; His(Me)2 (di-methylated histidine) at 6; disulfide; C-terminal amide
For the molecule B2, the Kd in the experiment with soluble human FcRn [1] was determined as 190 nM; with soluble human FcRn [2] it was 460 nM. The IC50 in the experiment with soluble human FcRn [3] is 4400 nM.

B3: Peptide No. 87 (peptide)
peptide: QRFXTGHFGGLXPCNGP
modifications: Pen at 4; 2-nitro-Tyr at 12; disulfide; C-terminal amide
As for B3, in the experiment with soluble human FcRn [4], the Kd was 290000 nM.

B4: Peptide No. 68 (peptide)
peptide: QRFXTGHFGGLXPCNGP
modifications: Pen at 4; 4-nitro-Phe at 12; disulfide; C-terminal amide
The molecule B4 showed an equilibrium dissociation constant (Kd) with soluble human FcRn [4] of 180000 nM.

B5: Peptide No. 69 (peptide)
peptide: QRFXTGHFGGLYPXNGP
modifications: Pen at 4; hC at 14; disulfide; C-terminal amide
For B5, in the experiment with soluble human FcRn [5], the IC50 is 2000 nM.

B6: Peptide No. 111 (peptide)
peptide: QRFXTGHFGGLYPCNGP
modifications: Pen at 4; Sar at 9; disulfide; C-terminal amide
In the experiment with soluble human FcRn [6], B6 came in with a Kd of 2000 nM.

B7: Peptide No. 70 (peptide)
peptide: QRFXTGHFGGLYPXNGP
modifications: hC at 4; Pen at 14; disulfide; C-terminal amide
Regarding B7, in the experiment with soluble human FcRn [7], the Kd was found to be 2100 nM.

B8: Peptide No. 108 (peptide)
peptide: QRFXTGHFGGLYPCNGP
modifications: Pen at 4; Sar at 6; disulfide; C-terminal amide
For B8, in the experiment with soluble human FcRn [8], the IC50 is > 125000 nM.

B9: Peptide No. 268 (peptide)
peptide: RFXTGXFGGLYPC
modifications: Pen at 3; 4-PyridylAla at 6; Sar at 9; NMeLeu at 10; disulfide; C-terminal amide
As to B9, the values for the Kd with soluble human FcRn [1] and with soluble human FcRn [2] were 67 nM and 280 nM, respectively. In the experiment with soluble human FcRn [3], the IC50 is 1300 nM.

B10: Peptide No. 259 (peptide)
peptide: RFXTGXFGGLYPC
modifications: not fully specified; Pen at 3; His(Me) (mono-methylated histidine) at 6; disulfide; C-terminal amide
In the case of B10, the Kd was 140 nM with soluble human FcRn [1] and 380 nM with soluble human FcRn [2]. The IC50 with soluble human FcRn [3] stood at 2900 nM.

B11: Peptide No. 29 (peptide)
peptide: QRF[dC]TGHFGGLYPCNGP-NH2
modifications: disulfide 4-14 (inferred)
With B11, the 50% inhibitory concentration (IC50) with soluble human FcRn [5] is > 125000 nM.

B12: Peptide No. 113 (peptide)
peptide: QRFXTGHFGGLYPCNGP
modifications: Pen at 4; NMeLeu at 11; disulfide; C-terminal amide
In turn, B12 showed a Kd in the experiment with soluble human FcRn [6] of 86 nM. This molecule gave an IC50 with soluble human FcRn [8] of 1600 nM.

B13: Peptide No. 28 (peptide)
peptide: QRFXTGHFGGLYPXNGP
modifications: hC at 4 and 14; disulfide; C-terminal amide
Consider B13, for which binding with soluble human FcRn [7] was put at a Kd of 3800 nM. This molecule also had an IC50 with soluble human FcRn [5] of 20000 nM.

B14: Peptide No. 295 (peptide)
peptide: QRFXTGHFGPLYPXNGP
modifications: Pen at 4 and 14; D-Pro at 10; disulfide; C-terminal amide
Molecule B14 displayed a Kd with soluble human FcRn [7] of 280 nM. In addition, the IC50 in the experiment with soluble human FcRn [5] was 1600 nM.

B15: Peptide No. 112 (peptide)
peptide: QRFXTGHFGGLYPCNGP
modifications: Pen at 4; Sar at 10; disulfide; C-terminal amide
Consider B15, for which the IC50 with soluble human FcRn [8] was 900 nM.

B16: Peptide No. 26 (peptide)
peptide: QRFCTGHFGGLFPCNGP-NH2
modifications: disulfide 4-14 (inferred)
With B16, in the experiment with soluble human FcRn [4], the Kd came to 230000 nM.

B17: Peptide No. 196 (peptide)
peptide: QRFC[NMeA]GHFGGLYPCNGP-NH2
modifications: disulfide 4-14 (inferred)
The molecule B17 returned a Kd with soluble human FcRn [6] of 18000 nM. This molecule also gave an IC50 with soluble human FcRn [8] of 169000 nM.

B18: Peptide No. 114 (peptide)
peptide: QRFXTGHFGGLYPCNGP
modifications: Pen at 4; NMeTyr at 12; disulfide; C-terminal amide
For the molecule B18, the Kd with soluble human FcRn [6] amounted to 92000 nM. The half-inhibitory concentration (IC50) in the experiment with soluble human FcRn [8] is > 125000 nM.

B19: Peptide No. 65 (peptide)
peptide: QRFXTGHFGGLXPCNGP
modifications: Pen at 4; pentafluoroPhe at 12; disulfide; C-terminal amide
In the case of B19, in the experiment with soluble human FcRn [4], the affinity, expressed as Kd, was 72000 nM.

B20: Peptide No. 27 (peptide)
peptide: QRFCTGHFGGLYPXNGP
modifications: hC (L-homocysteine) at 14; disulfide; C-terminal amide
B20 registered a Kd with soluble human FcRn [7] of 3900 nM. The same molecule gave a half-inhibitory concentration (IC50) with soluble human FcRn [5] of 21000 nM.

B21: Peptide No. 33 (peptide)
peptide: QRFCTGHFGGLYPXNGP
modifications: Pen at 14; disulfide; C-terminal amide
For the molecule B21, the IC50 with soluble human FcRn [5] stood at 18000 nM.

B22: Peptide No. 34 (peptide)
peptide: QRFXTGHFGGLYPXNGP
modifications: Pen at 4 and 14; disulfide; C-terminal amide
Turning to B22, in the experiment with soluble human FcRn [7], binding was put at a Kd of 370 nM. In the experiment with soluble human FcRn [5], the IC50 was found to be 2000 nM.
